Test: label from the status in PepcDB records

Sequence | protein production
MHLKKIWAVIYAVMLAAFSTFVLLDAFVIPKDRIKADEPIQSQEITDESIEAKAEAVITENSYKDDKISITISELREYDTSIYVADIQLADASYLRAGLADGTFGRNVTEVTSQIAQDSNAILAINGDFYGFRNKGYVMRNGYLYRETAQQGRQGNSRQEDLVIYEDGHMDVIEENEVAAQTLKDSGASQIFSFGPGLIKNGNITVDENSEVEQSMQSNPRTAIGMITPLHYIMAVSDGRTEASEGLTLYQLAQIMKGQDCVTAYNLDGGGSSTMWFNGEVVNKPTSYGSKISERAVSDIVYIGR | failed
MTICCPVIALAFALNRKPVSAPTARIAVLARNTSMSFASLGLIDPLLRNLQDLNYQTPTPVQVKAIPAVLGGKDVMAGAQTGTGKTAGFALPLLQRLVQQGPAVSSNRARVLVLVPTRELAEQVLQSFVAYGKGLDLRFLAAYGGVSINPQMMKLRKGVDVLVATPGRLLDLNRQNAVQFDQVETLVLDEADRMLDLGFARELNAVFAALPVQRQTLLFSATFTDDIRTMAASILRSPVNISVSPPNVTGSKIKQWVVTVDKRNKPDLFMHLVAENNWDHALVFVKTRNGVEYLAAMLDEAGYAVDTIHGDKPQPARLRALERFKTGEVQMLVATDVAARGLDIDDLPLVINVDLPIVAQDYVHRIGRTGRAGASGVAVSLVCADEAPQLAAIEALIGQTLRREEEPGFEAEHRVPETSSTGQIIKKPKKPKKPKVPQGGAAATPVAGKKPQPQGGDGKRKGGGAAGKGASVLNGSPFSVQKPRGKGKPAGKAVAGARKPAGKPAGGRGKH | failed
MILSIDSNDANTAPLHKKTISSLSGAVESMMKKLEDVGVLVARILMPILFITAGWGKITGYAGTQQYMEAMGVPGFMLPLVILLEFGGGLAILFGFLTRTTALFTAGFTLLTAFLFHSNFAEGVNSLMFMKNLTISGGFLLLAITGPGAYSIDRLLNKKW | failed
MTPAARLSAAIGILDRILGGTPAEQALTNWGRASRFAGSGDRAAVRDLVFDALRCRRSFARAGGAETGRGLVLGGLRMAGQEVGDLFTGEGHAPAPPAGSELKPQAPAELEALDCPDWLAPALRDSLGADFAPVMEALRHRAPVFLRVNLARTDRAAAAAELAAEGIVTQPHPLAETALEVTENPRRLQASAAYREGRVELQDAASQAIVAALPLAPGDRVLDYCAGGGGKSLAMAARAPIDLSAHDADPRRMRDLPERAARAGVKVRRLAPGDPARRGPFDLVLADVPCSGSGSWRRAPEGKWSLTPERLAELRAIQSTILDEVAPLVRPGGHLAYATCSLLASENAGQTEAFLERTSGWTRVHQLRLTPLDGGDGFFLDLLQRNG | failed
MAIDTTSSAPVHEPQPPLDTRLSTRDKLVLFVLCAAQFMVALDFSVLNVALPVLGRDLGMSQSALQWAVTAFALPSGGFLLLFGRIGDLYGRRRLFLTGLALFGTASLLATFAWDPASFLAGRALQGLGAAAIVPTGMSLLTTTFPEGPARDRALGISGTLLSLGFTVGMVAGGVLTDAFGWRSTMGLLTLFALIVLPLAPGLLPESRTPDRPRLDIPGAVTVTGGLLSLIYALSTAAERGFGGTDVIATLVAGVLLLAAFVTVESHAEAPLVSLPMLRRRTVAWGNLGGLITFSMMSTVVFVLTLYLQETLGLSAFETGLVFGVQGVLSAVAGANASKVIGRLGARRTLVVSLAGQGAFVATLVALGDGGWSVWLATAAVSLASMCHLGAIISYGLTVTSGVPDDEQGLATGLVTSTQQVGITIGIPLLGVLATTSSDLLAGVHTVLALDAVIVLAAAVLIAVGLGRRPATAPGAASGAVEAEAVGSR | failed
MNDSTMKCIKLAAIVCIAIGLSACSEQKTTQEYILASKVYLQKLEYGAAIVELKNAVRQTPKDAEARYYLAKAYSEQGSYVNAEKELDKAEQFGLEMNLLLPDLVFIKSKLNKVEEVYALMENVESLNDEQYIVVLTYAGITALNNKELERAQDFIAQANTISETSLYSKMGAAYLLHAEDNFSKGIEIIDTVLGESPDFTEALLLKGHLLFSSEQFIQANGVYTKYRQLHPFANKVLFFEVNSLISAGEYEQADVKATELIKRFKNSPLAHQYKAQVEYQKKNYEDARSYAISAAQQGNEFIISKLIAGMSSYQLGDIEQAYGYLNQTEKYLPSSHPIKRILASIKIKLGYTTEGIVQLSALEGLTTSDAGLFQSSSIELIKAGDFENAIKLLDKASIIAPENASVAAQKGMLKLSQNDKTGIASLEHALNLDPNLKDVEFSLAIQYLDNGQEKKVRSIAKKWIASQDNQASGYLLLGIIHSNNNLSSKAEENYQKALSIEPENYTALFYLADIAEDADRILDAVDYYQKVVTILPEHKAAIQKLSRLQLKHNNTSNNVEFLSTLAAKHPKNITLALGLAQNLRLNNELKKAITLLESMSDWARSSQQYWAILGDNYLQAKSHTKAKECFKKVLALNPNNFVAHLRLIAISEVKRNYKQALTYTISSLERFEHNTRLLILKANFELLTGDLVSAKKTLRYLQEQKVSHHLINKFVGELALADKDYPSAIDNFHELYQKSPTALNVMLLARALSFNGQKAEAAQTIESYLSRMIKDHKVRLLLAELYMQFDEAKAIKHLEIINQSEQNNAVVLNNLAMLELKRARPEQALLYAEKAFELKSGIHQISDTYGAALVTVKNFDSAIIVLLNAINQGSEAETTYVNLTKAYLATGKTDKVKALLDSIKDRTFYSKVQAMR | failed
MTNILILMEREIIKILSVVEFHPLILAFHLGLMLAGVSLLSYSLFLILVKKVDIMLPLVISFMAYLTSLILLILILLLETYRFLIFDGRILVKNSLLTRNEFKFSLRDKNLIIGFYDKASLGKFAIIYGDRLLFKFLTQQKNIRLIKNFVVKSGYRLGGTYKICRVCGSINEENAEYCDFCGSREVSPYDLYWID | failed
EDATPETVEYRQLSAADLLADTHLLREVFGLLVLAHYRTEPSDLARLLDAPNLTVRALTHEGHVVAVALLAQEGGLSASTRATMYEGGRVRGNMLPDVLSTQLRDEAAGVPVGQRVLRIATHAAVRSRGLGSKLLSEIRAEFADHVDWVGVSYGATPELVRFWADNGYNTVHLATSRNATSGEYSVVMLDP | failed
MRYLVWALRLLVFVAVLMFALKNTNPVAVTFYADYVVHDVPLIVVMLVVFVVGALFGLLLTVPAAMRRRREALRLRREVERLQAAASGTPPVVTPEAVAPMSPL | failed
MSKIEDIRKFYARLMAANAASSDPRLEQVFATVPREAFLGPGPWTIVAGSGRVTTPSADPAHIYQNVLVALDADKGINNGEPFLHAMWIGKLAPKPGEAVTHVGAGTGYYSAVLARLVSPGGTVTAFELEGRLADLARKNLEIYGNATVIHGDAVTRPLPPSDIIYVNAGVVAPPVGWLKALRPGGRMIFPWRPSERVPLAVMVTRTEKGFACDPFMRSWFIPCIGASVADLAAKIPTPEQATRSRSIWLTQHKAPDRTATAIFGDVWFSTKDVRAKPGS | failed
MTTTMSTLPVVLVDEILARVPITSLRSLRSTCKKWEASSKTNLVGGKATARKSSHVGFILIGDKICSMKLDLNGGDDFVDTSVNQVSAFDGFAISQLFHCDGLLFCISNNHYSNYTLMVCNMYLGETRLIQNRSLFESYQNFCSYAFGYDSSKNRNHKILRNNSVSGGYEIYSLKSDSWKDLNVDLEKSIHLWRLGSVSLKGNAYFRVIKVIEEGVWEYNLLCFDFTRESFGKLLSLPFESLGDEGEGIMVISCVRDDHLAVLYQRDTLGIWISTEIEPNKVSWREFLQVDLATLDGFPDVFIAGRFIVDEEKQVVVVFGQETELDLNHGNAFIFGRDGYFTSFTVGDAPPEDFTSYVPSLVSLQIDKTGKRKARDD | failed
MLKQRIITALLLVPVALYGVFMLPLWGFALFIQGVLMLGAWEWSPLMGVRRISARIAYTLFVGAIIGVLSWLAPYEHLWEGGELSKLIYYTILAGGVWWVVALAMIVNYPSSRRMWSRTRAIVGVFGLLIFIPTWAALVTVRSIDIDESRFFGGWVVLFILLLVWAADVGAYFAGVRYGRNKMMPAVSPGKTMEGLCGGVTLAFVVMMVVAHWTKVPADQFTGYYLTGLFTVVASVFGDLNESMFKRSAGVKDSGSILPGHGGILDRIDSLTAAVPIFTLAYLEFLH | failed
MIFWRLLQEFASTTIHGTKGICHADELIEKGQIDKAEQAVLTLLERKPNDANILHLAGVVALRKGQNSRAVALISKALEYAPNESLYYFNLGNAYLADGAIDLGIQALQDATRLDPERMEAWMNLGLALVEAKRHPEAVAAFERLLEIDPDHEADVAFASALVGAGIMLKESAMVDRGISVLESKLRDGYERYAAGVILARALEHRNRLSEAIRQHQALLEANPEHIGIRNNLARCLVQLGRVEEARTHYRLCVKSAPDKYHAFSALLAGLNYEPNLTAAMHEAEVRNWEKQLALPHYPVEPEFPNERDPERPLKIGYLSPDLRQHVVGHNFLPVLEHRNREQFSVFCYHIGEKQDDMSRRIAALADHWRHVHGASDDEVAALIREDRVDILVDLSGHTSHTQPLVFARKPAPVQVSWLGYFDTTGLATMDWFITDPYSSPPDQKQYFSERLYRMPHTRLYYHPYPDMPAVGQLPAKRNGYITFGCLNNLAKINTEVLDLWAQILAASPTSRLLIQTVALCDRLNLERFRALCVERGLDPARLELRPATSLEKFAQTYHQIDIALDPFPFCGGFTSFDALWMGVPVITLEQQRLAGRQTLSMLMNLGLPHLIASNKTDYVSIALELSRDSSEIEQLRSELRSRFLQSPLIDHCRFTRELEKAYRFFWSHWCTEKKQSSARKGISAPMDAYPSRRQISAT | failed
MEDLEETLFEEFENYSYDLDYYSLESDLEEKVQLGVVHWVSLVLYCLAFVLGIPGNAIVIWFTGFKWKKTVTTLWFLNLAIADFIFLLFLPLYISYVAMNFHWPFGIWLCKANSFTAQLNMFASVFFLTVISLDHYIHLIHPVLSHRHRTLKNSLIVIIFIWLLASLIGGPALYFRDTVEFNNHTLCYNNFQKHDPDLTLIRHHVLTWVKFIIGYLFPLLTMSICYLCLIFKVKKRSILISSRHFWTILVVVVAFVVCWTPYHLFSIWELTIHHNSYSHHVMQAGIPLSTGLAFLNSCLNPILYVLISKKFQARFRSSVAEILKYTLWEVSCSGTVSEQLRNSETKNLCLLETAQ | failed
SDPDADRVGIACKNDKGEWVLINGNQTCLMYLYYIITQYNKLGKMTGNEFCVKTIVTTELIKKIADKNHIEMLDCYTGFKWIAREIRLREGKKKYIGGGEESYGFLAEDFVRDKDAVSACCLIAEVAAWAKDNGKTLYQLLMDIYVEYGFSKE | failed
MEYQHWLREAISQLQASESPRRDAEILLEHVTGRGRTFILAFGETQLTDEQCQQLDALLTRRRDGEPIAHLTGVREFWSLPLFVSPATLIPRPDTECLVEQALARLPEQPCRILDLGTGTGAIALALARERPDCEITAVDRMPDAVALAQRNAQHLAIKNIHILQSDWFSALAGQQFAMIVSNPPYIDEQDPHLQQGDVRFEPLTALVAADSGMADIVHIIEQSRNALVSGGFLLLEHGWQQGEAVRQAFILAGYHDVETCRDYGDNERVTLGRYYQ | failed
MSAYEAVRIRLDPTPRQTRLLESHAGGARFAYNLMLAHVRRQISLGEKPDWTLYAMRRWWNEWKDEIAPWWRENSKEAYGSAFEWLSQALRNWSDSRKGRRAGRRVGWPKYKSKRSSVPRFAYTTGSFGLIEDDPKALKLPRIGRVHCMENATERVHGRRIVRMTVSRHAGFWYAALTVERPTESVPAKNRKQKNRNRQVGVDLGVRTLATLSDGTTFPNPRNYVRTQRKLRHAQQSLSRRDRGMSHGCGSKRYNRALERVRRIHARIAAQRADNIGKLTTWLADNYSDISIEDLNVQGMSHNRRLAKHVLDADFREFRRQLEYKTARAGTRLHVIDRWYPSSKTCSNCGTVKAKLSLSERVYHCGKCGLVIDRDVNAAINIQVAGSAPETLNARGGSVRQTRLECGTMRHPAKREPSGGDSRVRLGAGLGNEAMQMTSL | failed
MISTLNEIMKCIEDNDTIIIHRHVRPDPDAYGSQLGLKYYIQQKFPQKQVFAVGEAESSLSFIGELDNIDDKTYQDALVIVCDTANAPRIDDERYSTGSKLIKIDHHPAVDQYGDINLVNTNASSTSEIIYDLISHFNDEAIVNKDIASVLYLGIVGDTGRFLFNNTSEHTMEIAGKLIGHDIDHNALLNKMMEKDPKMLPFQGYVLQHFELMDDGFCQVKITEDVLEQFGIQPNEASQFVNTIADIKGLKIWVFAVDEGSEIRCRLRSKGQLIINDIAQDFGGGGHPNASGVSVNSWDEFEQLATALRTKLN | failed

From a protein production outcome set (Wang et al. 2014)
